# Measured values published in US8389575B2, “Control of enzymatic peracid generation” (E.I. du Pont de Nemours and Company, priority 2008, dated 2013).
# B1: Thermotoga maritima MSB8 perhydrolase: acetyl xylan esterase with perhydrolase activity from Thermotoga maritima MSB8 (SEQ ID NO: 16), cell extract of E. coli KLP18/pSW207 (protein, listed as Thermotoga maritima)
# chain: MAFFDLPLEELKKYRPERYEEKDFDEFWEETLAESEKFPLDPVFERMESHLKTVEAYDVTFSGYRGQRIKGWLLVPKLEEEKLPCVVQYIGYNGGRGFPHDWLFWPSMGYICFVMDTRGQGSGWLKGDTPDYPEGPVDPQYPGFMTRGILDPRTYYYRRVFTDAVRAVEAAASFPQVDQERIVIAGGSQGGGIALAVSALSKKAKALLCDVPFLCHFRRAVQLVDTHPYAEITNFLKTHRDKEEIVFRTLSYFDGVNFAARAKIPALFSVGLMDNICPPSTVFAAYNYYAGPKEIRIYPYNNHEGGGSFQAVEQVKFLKKLFEKG
# Test: Peracetic acid production and reaction pH over time, Thermotoga maritima MSB8 perhydrolase, selection of buffer, reactant and perhydrolase concentrations
# Format: biochemical
# Conditions: triacetin 100 mM
# Experimental: Reactions (10 mL total volume) containing triacetin (100 mM), hydrogen peroxide (100 mM or 250 mM) and heat-treated, centrifuged cell extract supernatant (35 to 100 μg total heat-treated extract protein/mL, prepared as described in Example 13) prepared from an E. coli transformant expressing perhydrolase from Thermotoga maritima MSB8 (KLP18/pSW207) in sodium citrate (50 mM, pH 6.5) buffer, or in sodium bicarbonate buffer (1 mM to 5 mM, initial pH as indicated in Table 12), or in water without added buffer were run at 25° C. A control reaction for each reaction condition was run to determine the concentration of peracetic acid produced by chemical perhydrolysis of triacetin by hydrogen peroxide in the absence of added extract protein. Determination of the concentration of peracetic acid in the reaction mixtures was performed according to the method described by Karst et al., supra. The peracetic acid concentration produced at predetermined reaction times is listed in Table 11, and the corresponding reaction pH at each reaction time is listed in Table 12.
# [1] = bicarbonate, 1 mM, H2O2 100 mM, total protein 75 μg/mL
# [2] = bicarbonate, 1 mM, H2O2 100 mM, total protein 100 μg/mL
# [3] = bicarbonate, 1 mM, H2O2 250 mM, total protein 35 μg/mL
# [4] = bicarbonate, 1 mM, H2O2 250 mM, total protein 50 μg/mL
# [5] = bicarbonate, 2.5 mM, H2O2 100 mM, total protein 50 μg/mL
# [6] = bicarbonate, 5 mM, H2O2 100 mM, total protein 50 μg/mL
# [7] = citrate, 50 mM, H2O2 100 mM, total protein 50 μg/mL
# [8] = water (no buffer), H2O2 250 mM, total protein 75 μg/mL
# [9] = water (no buffer), H2O2 250 mM, total protein 100 μg/mL
molecule,measurement,setting,value
B1,"PAA (ppm), 1 min",[1],434 ppm
same,"PAA (ppm), 5 min",[1],494 ppm
same,"PAA (ppm), 30 min",[1],608 ppm
same,"PAA (ppm), 2 h",[1],673 ppm
same,"PAA (ppm), 18 h",[1],576 ppm
same,"PAA (ppm), 1 min",[2],449 ppm
same,"PAA (ppm), 5 min",[2],667 ppm
same,"PAA (ppm), 30 min",[2],643 ppm
same,"PAA (ppm), 2 h",[2],703 ppm
same,"PAA (ppm), 18 h",[2],613 ppm
same,"PAA (ppm), 1 min",[3],467 ppm
same,"PAA (ppm), 5 min",[3],1047 ppm
same,"PAA (ppm), 30 min",[3],1041 ppm
same,"PAA (ppm), 2 h",[3],1014 ppm
same,"PAA (ppm), 18 h",[3],917 ppm
same,"PAA (ppm), 1 min",[4],624 ppm
same,"PAA (ppm), 5 min",[4],1060 ppm
same,"PAA (ppm), 30 min",[4],1090 ppm
same,"PAA (ppm), 2 h",[4],1063 ppm
same,"PAA (ppm), 18 h",[4],1021 ppm
same,"PAA (ppm), 1 min",[5],256 ppm
same,"PAA (ppm), 5 min",[5],722 ppm
same,"PAA (ppm), 30 min",[5],976 ppm
same,"PAA (ppm), 2 h",[5],887 ppm
same,"PAA (ppm), 18 h",[5],855 ppm
same,"PAA (ppm), 1 min",[6],410 ppm
same,"PAA (ppm), 5 min",[6],1088 ppm
same,"PAA (ppm), 30 min",[6],1496 ppm
same,"PAA (ppm), 2 h",[6],1423 ppm
same,"PAA (ppm), 18 h",[6],1419 ppm
same,"PAA (ppm), 1 min",[7],409 ppm
same,"PAA (ppm), 5 min",[7],892 ppm
same,"PAA (ppm), 30 min",[7],2001 ppm
same,"PAA (ppm), 2 h",[7],2254 ppm
same,"PAA (ppm), 18 h",[7],1937 ppm
same,"PAA (ppm), 1 min",[8],512 ppm
same,"PAA (ppm), 5 min",[8],535 ppm
same,"PAA (ppm), 30 min",[8],533 ppm
same,"PAA (ppm), 2 h",[8],472 ppm
same,"PAA (ppm), 18 h",[8],448 ppm
same,"PAA (ppm), 1 min",[9],576 ppm
same,"PAA (ppm), 5 min",[9],668 ppm
same,"PAA (ppm), 30 min",[9],654 ppm
same,"PAA (ppm), 2 h",[9],618 ppm
same,"PAA (ppm), 18 h",[9],543 ppm
